This passage reports EC50 (read off the curve) results from patent US20100173324A1.

The target in the experiment is human CD27 expressed on CHO/DG44 cells (normal O-linked sugar chain) (human) (UniProt P26842). In words: flow cytometry on CD27/DG44-4 cells. In general terms: In flow cytometry, cells or beads pass a laser one at a time.
Sequence of UniProt P26842 (P26842 20-260 H233R limits assumed): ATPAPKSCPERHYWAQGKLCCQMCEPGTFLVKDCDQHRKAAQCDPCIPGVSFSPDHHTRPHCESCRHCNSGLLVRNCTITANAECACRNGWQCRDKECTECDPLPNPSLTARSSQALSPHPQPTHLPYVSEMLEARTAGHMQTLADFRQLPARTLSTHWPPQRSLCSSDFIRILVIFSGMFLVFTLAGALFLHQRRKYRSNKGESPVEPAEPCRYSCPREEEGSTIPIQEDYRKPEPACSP

One may read the EC50 (read off the curve) as the midpoint of the concentration-response curve. Low values mean greater potency, high ones weaker potency. Regarding Anti-CD27 Antibody (O323), the concentration giving a half-maximal response (EC50 (read off the curve)) was found to be 0.2 µg/mL.
